Tests used:
[1] = target: Human neutrophil-derived myeloperoxidase (human) (UniProt P05164); assay: mass photometry
[2] = target: Human neutrophil-derived myeloperoxidase (human) (UniProt P05164); assay: native MS

Human neutrophil-derived myeloperoxidase (from UniProt P05164 279-745; P05164 279-745) (enzyme)
Kd [1]: 0.05 nM
percent diprotomer (ααββ) [1]: 93%
percent monoprotomer (αβ) [1]: 7%
stoichiometry N [1]: 2
stoichiometry N [2]: 2
